Experimental data reported in US20140235701, “NGF APTAMER AND APPLICATION THEREOF” (RIBOMIC INC., published 2014).

T1: NT-3 (neurotrophin-3) (Homo sapiens, UniProt P20783 P20783:139-257)
T1 sequence: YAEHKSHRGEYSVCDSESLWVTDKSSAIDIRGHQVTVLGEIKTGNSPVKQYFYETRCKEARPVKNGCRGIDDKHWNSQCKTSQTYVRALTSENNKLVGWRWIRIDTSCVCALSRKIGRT

T2: NT-4 (neurotrophin-4) (Homo sapiens, UniProt P34130 P34130:81-210)
T2 sequence: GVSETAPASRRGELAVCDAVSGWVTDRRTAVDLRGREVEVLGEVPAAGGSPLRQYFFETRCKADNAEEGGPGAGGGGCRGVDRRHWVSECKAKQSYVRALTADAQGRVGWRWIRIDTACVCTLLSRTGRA


Legend:
Details in all cases: tags: R&D Systems; chain copies: 2
NT-3 (neurotrophin-3) = target: T1, NT-3 (neurotrophin-3); test: SPR; scarcely bound
Experimental: (§1) The binding activity of these shortened forms to NGF and NT-3 was measured by the surface plasmon resonance method. For the measurement method, BIAcore2000 manufactured by BIAcore was used and CM5 reactive with amino group was used as a sensorchip, as shown in Example 1. The protein was immobilized in the same manner as in Example 1 by using ethyl-3-carbodiimide hydrochloride and N-hydroxysuccinimide. […] After protein immobilization, blocking with ethanolamine-HCl was performed. The amount of immobilized NGF and NT-3 was 3,000-4,000 RU and 3,000-5,000 RU, respectively. The aptamer for an analyte was prepared to 0.15 μM-0.5 μM. The running buffer and regeneration solution were the same as those in Example 1. NT-3 was immobilized on FC2, and NGF on FC3, and the final sensorgram was obtained by subtracting the results of FC1.
(§2) Then, the aptamers were subjected to shortening to 40 mer in the same manner as with consensus secondary structure 1. […] NT-4 was measured in the same manner as in NT-3.
(§3) The shortened sequences were measured for the binding to NGF, NT-3, NT-4 by the surface plasmon resonance method. The measurement was performed in the same manner as in Example 13.

NT-4 (neurotrophin-4) = target: T2, NT-4 (neurotrophin-4); test: SPR; scarcely bound
Experimental: as §1, §2, §3

[1] = target: T3, NGF (nerve growth factor) (Homo sapiens, UniProt P01138 P01138:122-241); test: cell_activity; neurite; TF-1 >1
[2] = target: T3, NGF (nerve growth factor); test: SPR; more than 40N control
[3] = target: T3, NGF (nerve growth factor); test: SPR; more than 40N control; remark: listed apart in the source
Experimental: As the measuring apparatus, BIAcore2000 manufactured by BIAcore was used and, as the sensor chip, CM5 that reacts with an amino group was used. […] For the reaction of an amino group on the protein side and a carboxyl group on the chip side, ethyl-3-carbodiimide hydrochloride and N-hydroxysuccinimide were used. After the reaction, blocking by ethanolamine-HCl was performed. The immobilized amount of NGF was set to 3,000-4,000 RU. An aptamer for analyte was prepared to 0.15 μM-0.5 μM. As a running buffer, solution A was used. Here, solution A is a mixed solution of 145 mM sodium chloride, 5.4 mM potassium chloride, 1.8 mM calcium chloride, 0.8 mM magnesium chloride, 20 mM Tris (pH 7.6), 0.05% Tween 20. As a regeneration solution, a mixed solution of 1M NaCl and 50 mM NaOH was used. NGF was immobilized on FC2, and the results of FC1 were subtracted to give a final sensorgram.
The measurement was as shown in Examples 1 and 2 and the surface plasmon resonance method was used.

[4] = target: T3, NGF (nerve growth factor); test: cell_activity; neurite; TF-1 <0.1

T3 sequence (P01138 122-241, one chain of several): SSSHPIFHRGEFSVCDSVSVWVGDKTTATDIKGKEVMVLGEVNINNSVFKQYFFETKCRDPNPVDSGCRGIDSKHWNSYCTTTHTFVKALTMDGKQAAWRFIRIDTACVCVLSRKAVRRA

Binder	IC50 [1]	binding result [2]	other results
GGGUCCUGCUGCGUAGUUUCCGUCUGCGUGGUUGUUACCC (ssRNA, 2'-F C/U, dA, 2'-OH G) [SEQ ID NO: 103]	766 pM	–	binding result (NT-3 (neurotrophin-3)): no binding; binding result (NT-4 (neurotrophin-4)): no binding
GGGUCCUGCUGUGUAGUUUCCGUCUGCAUGGUUGUUACCC (ssRNA, 2'-F C/U, dA, 2'-OH G) [SEQ ID NO: 113]	960 pM	–	binding result (NT-3 (neurotrophin-3)): no binding; binding result (NT-4 (neurotrophin-4)): no binding
GGGUCCUGCCGCGUAGUUUCCGUCUGCGUGGCUGUUACCC (ssRNA, 2'-F C/U, dA, 2'-OH G) [SEQ ID NO: 110]	999 pM	–	binding result (NT-3 (neurotrophin-3)): no binding; binding result (NT-4 (neurotrophin-4)): no binding
GGGUCCUGCUGCGUAGUUUCCGUCUGCGUAGCUGUUACCC (ssRNA, 2'-F C/U, dA, 2'-OH G) [SEQ ID NO: 106]	770 pM	–	binding result (NT-3 (neurotrophin-3)): no binding; binding result (NT-4 (neurotrophin-4)): no binding
GGGUCCUGCUGCGUAGUUUCCUUCUGCGUGGCUGUUACCC (ssRNA, 2'-F C/U, dA, 2'-OH G) [SEQ ID NO: 109]	687 pM	–	binding result (NT-3 (neurotrophin-3)): no binding; binding result (NT-4 (neurotrophin-4)): no binding
GGGUCCUGCUGCGAAGUUUCCGUCUUCGUGGCUGUUACCC (ssRNA, 2'-F C/U, dA, 2'-OH G) [SEQ ID NO: 107]	967 pM	–	binding result (NT-3 (neurotrophin-3)): no binding; binding result (NT-4 (neurotrophin-4)): no binding
GGGUCCUGUUGCGUAGUUUCCGUCUGCGUGACUGUUACCC (ssRNA, 2'-F C/U, dA, 2'-OH G) [SEQ ID NO: 108]	403 pM	–	binding result (NT-3 (neurotrophin-3)): no binding; binding result (NT-4 (neurotrophin-4)): no binding
SEQ ID NO: 48 (ssRNA, 2'-F C/U, dA, 2'-OH G) RNA: GGGAGAACUUCGACCAGAAGUUGGCACAUCCUGCUGCGGAGUUUCCGUCUCGGUGGCUGUUAUGUGCGCAUACAUGGAUCCUC	–	binds	–
SEQ ID NO: 59 (ssRNA, 2'-F C/U, dA, 2'-OH G) RNA: GGGAGAACUUCGACCAGAAGUUUGCACAUCCUGCUGCGUAGUUUCCUUCUGCGUGGUUGUUAUGUGCGCAUACAUGGAUCCUC	–	binds	–
SEQ ID NO: 53 (ssRNA, 2'-F C/U, dA, 2'-OH G) RNA: GGGAGAACUUCGACCAGAAGUUUGCACAUCCUGCUGCGCAGUUUCCGUCUACGUGGCUGUUAUGUGCGCAUACAUGGAUCCUC	–	binds	–
SEQ ID NO: 51 (ssRNA, 2'-F C/U, dA, 2'-OH G) RNA: GGGAGAACUUCGACCAGAAGUUGGCACACCCUGCUACGGAGUUUCCGUCUCGGUGGCUGUUAUGUGCGCAUACAUGGAUCCUC	–	binds	–
SEQ ID NO: 52 (ssRNA, 2'-F C/U, dA, 2'-OH G) RNA: GGGAGAACUUCGACCAGAAGUUGGCACAUCCUGCUGCAUAGUUUCCGUCUUUGUGGCUGUUAUGUGCGCAUACAUGGAUCCUC	–	binds	–
SEQ ID NO: 61 (ssRNA, 2'-F C/U, dA, 2'-OH G) RNA: GGGAGAACUUCGACCAGAAGUUAGCACAUCCUGCUGCGUAGUUUCCGUCUUCGCGGUUGUUAUGUGCGCAUACAUGGAUCCUC	–	binds	–
SEQ ID NO: 54 (ssRNA, 2'-F C/U, dA, 2'-OH G) RNA: GGGAGAACUUCGACCAGAAGUUGGCACAUCCUGAUGCGUAGUUUCCGUCUGCGUGUCUGUUAUGUGCGCAUACAUGGAUCCUC	–	binds	–
SEQ ID NO: 60 (ssRNA, 2'-F C/U, dA, 2'-OH G) RNA: GGGAGAACUUCGACCAGAAGUUGGCACAUCCUGCUGCAGAGUUUCCGUCUCGGUGGCUGUUAUGUGCGCAUACAUGGAUCCUC	–	binds	–
SEQ ID NO: 58 (ssRNA, 2'-F C/U, dA, 2'-OH G) RNA: GGGAGAACUUCGACCAGAAGUUGACACAUCCUGCUGCGUAGUUUCCGUCUGCGUGGUUGUUAUGUGCGCAUACAUGGAUCCUC	–	binds	–

Binder	IC50 [1]	binding result [2]	other results
SEQ ID NO: 49 (ssRNA, 2'-F C/U, dA, 2'-OH G) RNA: GGGAGAACUUCGACCAGAAGUUUGCACAUCCUGCUGCGUAGUUUCCGUCUACGUGGCUGUUAUGUGCGCAUACAUGGAUCCUC	–	binds	–
SEQ ID NO: 55 (ssRNA, 2'-F C/U, dA, 2'-OH G) RNA: GGGAGAACUUCGACCAGAAGUUGGCACAUCCUGUUGCGUAGUUUCCGUCUGCGUGGCUGUUAUGUGCGCAUACAUGGAUCCUC	–	binds	–
SEQ ID NO: 57 (ssRNA, 2'-F C/U, dA, 2'-OH G) RNA: GGGAGAACUUCGACCAGAAGUAGGCACGUCCUGCUGCAUAGUUUCCGUCUGUGUGGCUGUUAUGUGCGCAUACAUGGAUCCUC	–	binds	–
SEQ ID NO: 31 (ssRNA, 2'-F C/U, dA, 2'-OH G) RNA: GGGAGAACUUCGACCAGAAGUUGGCACAUCCUGCUGCGCAGUUUCCCUCUGCGUGGCUGUUAUGUGCGCAUACAUGGAUCCUC	–	–	binding result [3]: binds
SEQ ID NO: 50 (ssRNA, 2'-F C/U, dA, 2'-OH G) RNA: GGGAGAACUUCGACCAGAAGCUGGCACAUCCUGUUGCGUAGUUUCCGUCUACGUGACUGUUAUGUGCGCAUACAUGGAUCCUC	–	binds	–
GGGUCCUGACGUAUAGUUUCCGUCUGUAUGUCUGUUACCC (ssRNA, 2'-F C/U, dA, 2'-OH G) [SEQ ID NO: 101]	994 pM	–	–
GGGUCCUGAUGUCAAGUUUCCGUCUUGAUGUCUGUUACCC (ssRNA, 2'-F C/U, dA, 2'-OH G) [SEQ ID NO: 104]	682 pM	–	binding result (NT-3 (neurotrophin-3)): no binding; binding result (NT-4 (neurotrophin-4)): no binding
GGGUCCUGUUGCUAAGUUUCCGUCUUAGUGACUGUUACCC (ssRNA, 2'-F C/U, dA, 2'-OH G) [SEQ ID NO: 105]	444 pM	–	binding result (NT-3 (neurotrophin-3)): no binding; binding result (NT-4 (neurotrophin-4)): no binding
SEQ ID NO: 56 (ssRNA, 2'-F C/U, dA, 2'-OH G) RNA: GGGAGAACUUCGACCAGAAGUUGCACAUCCUGCUGUGUAGUUUCCGUCUGCAUGGUUGUUAUGUGCGCAUACAUGGAUCCUC	–	binds	–
GGGUCCUGCUCAAGAGUUUCCGUCUCGUGGGCUGUUACCC (ssRNA, 2'-OMe G1-3,U4,C6,G14,G16,C21,G22,U23,C26,G27,U28,C32,U35,C38-40; other C/U 2'-F, G 2'-OH, dA; 5',3' idT) [SEQ ID NO: 87(2)]	–	–	IC50 [4]: 107 pM
GGGUCCUGCUCAAGAGUUUCCGUCUCGUGGGCUGUUACCC (ssRNA, as 87(2) plus 2'-OMe G29-31) [SEQ ID NO: 87(3)]	–	–	IC50 [4]: 118 pM
GGGUCCUGCUCAAGAGUUUCCGUCUCGUGGGCUGUUACCC (ssRNA, as 87(2) plus 2'-OMe C9,U10,C11,G29-31) [SEQ ID NO: 87(4)]	–	–	IC50 [4]: 113 pM
GGGUCCUGUGGAAGAGUUUCCGUCUCGUCCACUGUUACCC (ssRNA, 2'-F C/U, dA, 2'-OH G) [SEQ ID NO: 89]	959 pM	–	–
GGGUCCUGAGCAAGAGUUUCCGUCUCAUGCUCUGUUACCC (ssRNA, 2'-F C/U, dA, 2'-OH G) [SEQ ID NO: 102]	908 pM	–	–
GGGUCCUGUUCAAGAGUUUCCGUCUCGUGAACUGUUACCC (ssRNA, 2'-OMe G1-3,U4,C6,G14,G16,C21,G22,U23,C26,G27,U28,C32,U35,C38-40; other C/U 2'-F, G 2'-OH, dA; 5',3' idT) [SEQ ID NO: 88(3)]	–	–	IC50 [4]: 106 pM
GGGUCCUGUUCAAGAGUUUCCGUCUCGUGAACUGUUACCC (ssRNA, 2'-OMe G1-3,C38-40; other C/U 2'-F, G 2'-OH, dA; 5',3' idT) [SEQ ID NO: 88(2)]	–	–	IC50 [4]: 241 pM
